Experimental findings from a protein production outcome set (Wang et al. 2014) are described below.

The nature of the data set: label from the status in PepcDB records.
As for “MAKILEGPAMKLFNKWGIPVPNYVVIMDPKRLAQLGEANKWLRESKLVVKAHEAIGGRFKLGLVKIGLNLDEAIQASREMLGAKVGTAEVRQVIVAEMLDHDAEFYVSIIGNRDGAELLISKYGGVDIEDNWDSVRRIQIPLDEHPTIEQLTALAKEAGFEGEIAERVGKICSRLVLCFDNEDAQSIEINPLVIRKSDMRFAALDAVMNVDWDARFRHADWDFKPVSEIGRPFTEAEQQIMDIDSRIKGSVKFVEVPGGEIALLTAGGGASVFYADAVVARGGTIANYAEYSGDPPDWAVEALTETICRLPNIKHIIVGGAIANFTDVKATFSGIINGLRESKSKGYLEGVKIWVRRGGPNEAQGLAAIRKLQEEGFDIHVYDRSMPMTDIVDLALKS”, the protein production entry was “not failed”. Turning to “MKKRLSLDRRFLPYIKKAGGVLVKKQMGAYVSLAAAMAIVGSSVVVGKLMVERIPVFLSSGLRFLIASVVLLMLLFCIEKGFPALTKKDVFVLLVQSFTGVFLFSICLLYGVQYTTGTESGILTSTTPMLIGILSFFLLREKIEKKTLIGILLAVCGVMAINLFGAGSQDGTPHALFGNMLIIAAVIGEALFTLMAKLLSPHISALAISTFVSLFGFLFFLPFALFEASSFDYSVPTVLDWSYVLYYALFVTVLAFYLWYSGVTKVPAGVSGIFTSVLPVSAVILSGVILKEPFEFVHFIGIACVIGGIFVTVIKKKQPDAYPAAEEKTL”, the protein production result is “failed”. Take “MLETLYAFFDLGQFSQSPINGSHNPGLVILSYCVALLASYTAILTLERVQIYQAKVARYSWLIVSAVISGVGVWSMHFIGMLAFELHLPMSHSVLLTLISVVPAIVGSFIAMKIQMSLSSVRATLIAGTVLGAGIGLMHYTGMAAMEMSAHLRYDPLWFVLSVFVAVSLGIIALLAYRHYKKSERTSWFRRRSAQIVVAAIIALAISGMHYTAMIAANFYPTRAPDAVFSGHGNWLAYVVGIGSCLTAIMAIIASQIDRRLQQQQKLAQMSAEQLYEVISAIDDGLLLFDEHNRVLLANQAFTRLTGDDLERIKGSKLNIEDYIERSDKLLENIKNSLARRVAWQGKVNVRKRSGTTFPVRLSISKVRYNQQKERHFVATVTDISAEVESSERIRYLAYNDALTGLANRRSLLDHLQDQLATYKEAGQNGALILCDIDKFKILNNTLGSDMGDLLLKRVAERLQSSTKANSFLARLSANEFAVVLTGLERGNSVNIKQQLLTRIYQLLDQLQQPYQLNSYTHLCSFSAGASLFDDSESNAETLMTQSGLALSHSKRKGTGEVSLFRQEFADAVSKRVKLEEQLRNAIKQNEFELYLQPQVNIESKPTGAEALIRWKQSDGRFVSPADFIPLAEETGLIVPLGYWITERACQILQQWQQSPEKAKMQLSINVSAKQFQQPEFVEQVQLLVEKYEIRPHRLKLELTESLLMDDISSVTNKIKQLKRLGIEFALDDFGTGYSSLSYLMQIPFDTLKIDVSFVRNMLDSMEKAQIVYTIIQLGESLKLNIVAEGVETEEQFNYLARLNCDTFQGYLFSKPVPESEFLADKTAP”: the protein production entry is given as “failed”.

As for “MGHHHHHHSHMAILIAFMKQRRMGLNDFIQKIANNSYACKHPEVQSILKISQPQEPELMNANPSPPPSPSQQINLGPSSNPHAKPSDFHFL”, the protein production entry is “failed”. As for “MGPKRRQLTFREKSRIIQEVEENPDLRKGEIARRFNIPPSTLSTILKNKRAILASERKYGVASTCRKTNKLSPYDKLEGLLIAWFQQIRAAGLPVKGIILKEKALRIAEELGMDDFTASNGWLDRFRRRRS”, the entry is “not failed”; as for “MSKELLGVSAVGLMVLGEFCAIYSEVVVARLAHSGNTSGAELALPVLIMCLGGICLLAAYWLGYVAVGDIWIITVVSVTSLLLLEPLVIWALFQQAPGRGALIGFCLGALGMLSAVFL”, “failed”; as for “MVYWEYKINQTRRVMKNLKFQSVFDIIGPVMVGPSSSHTAGAVRIGKIVSAIFGDAPTEVEFQLFNSFAKTYRGHGTDVALVAGILGMETDDPDIPHALDIAHEKGIKVYWKINKDSKAPHPNTTRITLKNATKTISATGISIGGGNIQVTELNGF”, “not failed”. As to “MGIFEPFRAIGYITSTVPFSVQRLGTETFVTVSVGKAFQIYNCAKLNLVIISPQLPKKIRALASYRDYTFVAFGNEIAVFRRAHQVATWSKHVAKVDLLLVFGEHVLSLDVEGNMFIWAFKGIEEHLAPIGNLQLTGKFTPTSIVHPDTYLNKVLVGSQEGPLQLWNINTKKMLYQFKGWGSSVTSCVSSPALDVVAIGCADGKIHVHNIKLDEEIVTFEHASRGAVTALSFSTDGRPLLASGGSFGVISIWNLNKKRLQSVIRDAHDSSIISLNFLANEPVLMSASADNSLKMWIFDTNDGDPRLLRFRSGHSAPPLCIRFYSNGRHILSAGQDRAFRLFSVIQEQQSRELSQRHISRRAKKLRLKEEELKLKPVVSFDCAEIRERDWCNVVTCHMDTAEAYVWRLQNFVLGEHILKPCPENPTPIKACAISACGNFAVVGTAGGWIERFNLQSGISRGSYFDMSEKRRYAHDGEVIGVACDSTNTLMISAGYHGDLKVWDFKKRELKSQWDVGCSLVKIVYHRVNGLLATVADDFVIRLYDVVTLKMVREFRGHTDRITDLCFSEDGKWVISSSMDGSLRIWDVILAKQIDGVHVDVPITALSLSPNMDVLATAHSDQNGVYLWVNQSMFSGLPSVESYASGKDVVNVKLPSVSALTSSEADDDMDRQVLENSEALQASSFSISQKQIPELVTLSLLPKSQWQSLINLDIIKARNKPIEPPKKPEKAPFFLPSIPSLSGDILFKANDSEADGENEENNKKDQNSMKNFDALESPFSKHLKSSWDSKHFLDFTNYMKSLSPSALDMELRMLEIIDEDVEEELIKRPEFILIGQLLDYFINEVSCKNDFEFMQAVVKLFLKIHGETIRCHPSLQEKAKKLLETQSLVWQKMEKLFQSTRCIVTFLSNSQF”, the protein production entry was “failed”. In the case of “LRTIVELMENNLEETLSLDQLAAYSGRSRRQIDRLFQAQLGTSPRRYYMELRITKSRRLLQYSDLSVMEVAVACGFVSVSHFSKCYAAYFGYPPSREQRLGE”, the protein production entry is given as “failed”. As for “MLWTQVYDPFSNITLSAMVAMLPLAILFYMLAVRRAKGHVAAACGLAGAFAATVAVWGMPAGLAVNATLYGVAMGLFPIIWIVLTAVWLYNMTVESGEFEIIKSSLARLTDDRRLQALFIAFAFGAFLEGTAGFGTPVAITAAMLMGLGFSPVYAGGICLIANTAPVAFGALGIPVIVASQVSGLDTLTLSQYVGRQLPVFSLIVPLWMTVVMCGFKRTMEVMPAIVVASVCFSGTQFIFADWHGPTLPDVMAAIVTIVGLLVLLRFWKPARTWHFADEKPEAATGETRHSTGEVLRAWAPYAILAVFVFFWGLGSVKTFLNNIFIMSFEWPGLHAAIAKTAPIVKADAPYAAKFTFNLISAGGTAILFAGLLSVPVMPGYGYGRAFGCLARTCYQLRFPILTIVMILGLAQLMNYSGMSSTLGIAFTHTGALFPFFAPIMGWLGVFLTGSNTSSNALFGSMQHATASAVGVDPYLTVAANATGGVTGKMISPQSISVATASTHTVGQEGALFRFALKHSIAMTLVICVLVTLQAYVIPWMLPAR”, the protein production entry is listed as “failed”. The result for “METLDNHDQGFCRQVPRQAVCGFSRRTGWGGAAIFVMLMTLALAAPVQAQSLRQGVSAYQRQDYVAASRIFIPLAERGNAAAQTYLGLLFETGRGLPQNYTEAAMWYRRAAEQGDSRAQYSLGLLYDRGFGVPQDVVEASKWLNLSTAAAPPRAREARVRIRDAVTTKMTRGEIAQARLRALEWAPSREH” reads “failed”; that for “MRRSPCNQGLSNLMQLFTYLAPAGQALLPYLSEISIALVACTLVMLGGEINAFLRRALRNQHFLVRTLAFIFINAFGYGLIIVKASPYVARTLAQLESGMMLTLIVSCFVVIGLWAQRNHQI”, “failed”.

Take “MGVANLRVMHYVHKDKAFAYWSCTCVYAPESRYCSEEHKKMALAEREYELPHNFANVHLHTNMEDLVLPKIISYLRDPQLGIIEIPNLQYIDDVFNVTPTEQPDMFSTNLDEREEFNIWLFMMIS”: the protein production result is reported as “failed”.

In the case of “MKNLTSIRPNTSRPARLAALKQSFQDWNNTSDVMARLARRLSTTLSLEAQLSILAEEMTDMVPFDSLNYRHRIARQDFIFSTGMGGPHRCEYRLSLEGHQYGTLTLHRRQRFSEEELTGIEMMLSGAICHIRNACQFIAIEQTALTDSLTGIGNKRALDEALQRASAMADRHGAPWSLILCDLDHFKLINDNHGHVVGDHILARTAEKLEQALRNSDTVYRFGGEEFAILLPHTNEQEARDVADRIRGAIESIRVDGGETPLTVTASCGVAMHLTDEQPEQWLARADEALYRAKAAGRNCTRVFASIS”, the protein production result is “failed”.
